Target: T1, KSHV G protein-coupled receptor (kGPCR), stably expressed in HUVEC (Kaposi's sarcoma-associated herpesvirus …, UniProt Q98146 1-342)
T1 construct: GPCR homologue of Kaposi's sarcoma-associated herpesvirus (kGPCR); Probably HA-tagged like the other constructs, but no tag and no primary antibody is named for the proximity ligation assay; also called HUVEC/kGPCR
T1 sequence: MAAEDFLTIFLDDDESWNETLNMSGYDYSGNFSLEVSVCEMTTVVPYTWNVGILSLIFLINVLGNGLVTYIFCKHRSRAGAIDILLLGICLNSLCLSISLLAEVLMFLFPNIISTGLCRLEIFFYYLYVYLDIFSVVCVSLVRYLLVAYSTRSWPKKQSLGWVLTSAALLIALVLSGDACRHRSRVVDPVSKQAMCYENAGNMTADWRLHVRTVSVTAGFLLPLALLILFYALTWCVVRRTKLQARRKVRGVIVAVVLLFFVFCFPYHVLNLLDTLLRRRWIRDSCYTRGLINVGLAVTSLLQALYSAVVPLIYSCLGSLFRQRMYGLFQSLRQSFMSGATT
Assay: proximity ligation; Duolink in situ kit on fixed HUVEC-Vector or HUVEC-kGPCR stable cells; spots counted in more than 100 cells of each group
Settings: partners not purified

B1: sarco/endoplasmic reticulum calcium ATPase 2 (SERCA2), endogenous in HUVEC (enzyme, human (endogenous in HUVEC), UniProt P16615 1-1042, looked up)
chain: MENAHTKTVEEVLGHFGVNESTGLSLEQVKKLKERWGSNELPAEEGKTLLELVIEQFEDLLVRILLLAACISFVLAWFEEGEETITAFVEPFVILLILVANAIVGVWQERNAENAIEALKEYEPEMGKVYRQDRKSVQRIKAKDIVPGDIVEIAVGDKVPADIRLTSIKSTTLRVDQSILTGESVSVIKHTDPVPDPRAVNQDKKNMLFSGTNIAAGKAMGVVVATGVNTEIGKIRDEMVATEQERTPLQQKLDEFGEQLSKVISLICIAVWIINIGHFNDPVHGGSWIRGAIYYFKIAVALAVAAIPEGLPAVITTCLALGTRRMAKKNAIVRSLPSVETLGCTSVICSDKTGTLTTNQMSVCRMFILDRVEGDTCSLNEFTITGSTYAPIGEVHKDDKPVNCHQYDGLVELATICALCNDSALDYNEAKGVYEKVGEATETALTCLVEKMNVFDTELKGLSKIERANACNSVIKQLMKKEFTLEFSRDRKSMSVYCTPNKPSRTSMSKMFVKGAPEGVIDRCTHIRVGSTKVPMTSGVKQKIMSVIREWGSGSDTLRCLALATHDNPLRREEMHLEDSANFIKYETNLTFVGCVGMLDPPRIEVASSVKLCRQAGIRVIMITGDNKGTAVAICRRIGIFGQDEDVTSKAFTGREFDELNPSAQRDACLNARCFARVEPSHKSKIVEFLQSFDEITAMTGDGVNDAPALKKAEIGIAMGSGTAVAKTASEMVLADDNFSTIVAAVEEGRAIYNNMKQFIRYLISSNVGEVVCIFLTAALGFPEALIPVQLLWVNLVTDGLPATALGFNPPDLDIMNKPPRNPKEPLISGWLFFRYLAIGCYVGAATVGAAAWWFIAADGGPRVSFYQLSHFLQCKEDNPDFEGVDCAIFESPYPMTMALSVLVTIEMCNALNSLSENQSLLRMPPWENIWLVGSICLSMSLHFLILYVEPLPLIFQITPLNVTQWLMVLKISLPVILMDETLKFVARNYLEPGKECVQPATKSCSFSACTDGISWPFVLLIMPLVIWVYSTDTNFSDMFWS
notes: SERCA2 of human umbilical vein endothelial cells; source: endogenous, HUVEC, in fixed cells
  fold of proximity ligation fluorescent spots over control HUVEC cells: > 10 fold

Reference: article PMC4374719, “Herpesviral G Protein-Coupled Receptors Activate NFAT to Induce Tumor Formation via Inhibiting the SERCA Calcium ATPase” (PLoS Pathogens, 2015)
